Experimental findings from IntAct's records for PubMed 18342605 are described below.

The target in one test is nab3_yeast NAB3 (UniProt P38996).
A further test deals with pp12_yeast GLC7 (UniProt P32598).
Sequence of UniProt P32598 (P32598 whole entry): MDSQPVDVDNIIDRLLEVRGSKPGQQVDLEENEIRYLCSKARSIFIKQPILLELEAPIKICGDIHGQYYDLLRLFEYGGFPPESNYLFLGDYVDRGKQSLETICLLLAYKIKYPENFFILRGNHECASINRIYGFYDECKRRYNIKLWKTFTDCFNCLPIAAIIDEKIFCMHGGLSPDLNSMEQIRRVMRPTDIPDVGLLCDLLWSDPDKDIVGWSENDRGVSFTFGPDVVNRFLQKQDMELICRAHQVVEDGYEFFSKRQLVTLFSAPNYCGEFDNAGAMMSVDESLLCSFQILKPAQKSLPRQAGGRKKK

Sequence of UniProt P38996 (P38996 whole entry): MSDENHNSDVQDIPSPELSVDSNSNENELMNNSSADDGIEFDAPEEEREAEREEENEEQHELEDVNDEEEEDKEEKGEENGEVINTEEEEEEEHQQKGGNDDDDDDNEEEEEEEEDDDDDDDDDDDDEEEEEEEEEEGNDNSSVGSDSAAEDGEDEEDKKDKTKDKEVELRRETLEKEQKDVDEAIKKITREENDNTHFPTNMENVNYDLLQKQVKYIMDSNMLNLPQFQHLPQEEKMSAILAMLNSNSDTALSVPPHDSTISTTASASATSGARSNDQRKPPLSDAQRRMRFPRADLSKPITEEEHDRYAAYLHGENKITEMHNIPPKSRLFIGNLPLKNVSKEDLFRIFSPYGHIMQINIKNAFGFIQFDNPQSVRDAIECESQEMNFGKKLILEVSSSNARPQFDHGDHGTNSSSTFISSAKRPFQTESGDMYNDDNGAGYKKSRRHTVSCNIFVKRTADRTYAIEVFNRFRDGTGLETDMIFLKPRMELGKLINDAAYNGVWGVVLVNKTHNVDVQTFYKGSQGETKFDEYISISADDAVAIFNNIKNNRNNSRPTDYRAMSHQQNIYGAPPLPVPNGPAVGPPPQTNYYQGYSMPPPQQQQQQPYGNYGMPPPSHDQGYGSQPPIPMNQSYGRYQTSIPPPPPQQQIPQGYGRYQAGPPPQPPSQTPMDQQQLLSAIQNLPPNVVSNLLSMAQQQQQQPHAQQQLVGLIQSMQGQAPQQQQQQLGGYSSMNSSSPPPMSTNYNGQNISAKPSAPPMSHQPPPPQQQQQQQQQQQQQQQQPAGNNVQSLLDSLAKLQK

As for “Helicase SEN1 (Saccharomyces cerevisiae), Q00416 F2003A”, the figures for the “effect of a mutation on the interaction” value in the test with nab3_yeast NAB3 and with pp12_yeast GLC7 were “with no effect” and “disrupting interaction strength”, respectively.

“Helicase SEN1 (Saccharomyces cerevisiae), Q00416 K1999A”: the “effect of a mutation on the interaction” value with nab3_yeast NAB3 and with pp12_yeast GLC7 was “with no effect” in each case.
